Where two headings read alike, the source gives them in different places. Blank lines part the entries; values can stand above or below the binder they belong to.
Experiments:
human Nectin-4 protein [1] = molecular target: T1, human Nectin-4 protein (human, UniProt Q96NY8 32-349); assay: ELISA, coated human Nectin-4
T1 construct: Purified protein used for coating in ELISA and as analyte in Octet; also called human Nectin-4 antigen
T1 sequence (looked up): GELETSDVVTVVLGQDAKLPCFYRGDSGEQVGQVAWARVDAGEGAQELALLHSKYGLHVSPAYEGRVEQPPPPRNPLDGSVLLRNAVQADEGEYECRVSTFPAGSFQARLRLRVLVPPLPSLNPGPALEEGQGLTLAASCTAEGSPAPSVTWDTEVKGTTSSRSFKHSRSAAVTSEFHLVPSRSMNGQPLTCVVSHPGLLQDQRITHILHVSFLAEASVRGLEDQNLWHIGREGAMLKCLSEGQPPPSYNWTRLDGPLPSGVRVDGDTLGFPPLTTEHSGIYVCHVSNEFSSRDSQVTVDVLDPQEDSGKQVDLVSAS
Protocol: Human Nectin-4 (Sino Biological, Cat: 19771-H08H) was diluted to 1 μg/mL with carbonate (CBS) buffer, added to a 96-well plate at a volume of 100 μL/well, and placed at 4° C. for 16-20 h. The CBS buffer in the 96-well plate was discarded by pipetting, the plate was washed once with PBST (pH 7.4, PBS containing 0.05% Tween 20) buffer, added with 200 μL/well of skim milk powder (blocking solution) containing 2% PBST, incubated for 1 h at room temperature for blocking. The blocking solution was removed, and the plate was washed three times with PBST buffer. The anti-Nectin-4 mouse antibody to be tested was diluted with PBST/2% skim milk powder to an appropriate concentration, then added to the plate at a volume of 100 μL/well, and incubated at room temperature for 1.5 h. The reaction system was removed, and the plate was washed three times with PBST, and 50 μL/well of HRP-labeled goat anti-mouse IgG secondary antibody (purchased from the Jackson Laboratory) diluted with PBST/1% skim milk powder (dilution ratio 1:5000) was added, and incubated at room temperature for 1 h. After the plate was washed 3 times with PBST, 100 μL/well of TMB was added, and incubated at room temperature for 5-10 min for color development. The color development was stopped by adding 50 μL/well of 0.2 M sulfuric acid. Microplate reader was used to detect optical density (O.D.) at dual wavelengths 450/620 nm.

[2] = molecular target: T2, cynomolgus monkey Nectin-4 protein (cynomolgus monkey); assay: ELISA, coated antigen
T2 construct: also called cynomolgus monkey Nectin-4 antigen
Source text: (§1) The affinity of anti-human Nectin-4 humanized monoclonal antibodies to Nectin-4 protein of different species was detected by ELISA.

human Nectin-4 protein [3] = molecular target: T1, human Nectin-4 protein; assay: ELISA, coated antigen
Source text: as §1

[4] = molecular target: T2, cynomolgus monkey Nectin-4 protein; assay: ELISA, coated cynomolgus monkey Nectin-4, anti-human-HRP
human Nectin-4 protein [5] = molecular target: T1, human Nectin-4 protein; assay: ELISA, coated human Nectin-4, anti-human-HRP
human Nectin-4 protein [6] = molecular target: T1, human Nectin-4 protein; assay: competitive ELISA, coated Nectin-4; competitor biotin-labeled Nectin-1-hFc
Protocol: Human Nectin-4 is linked to another Nectin-4 molecule or Nectin-1 molecule through the IgV domain. Because 31HZ, 56HZ and 74HZ all bind to the IgV domain of Nectin-4, the competitive activity of the three antibodies was detected by competitive ELISA. The specific steps were as follows: Nectin-4 protein was diluted to 2 μg/mL with CBS coating solution, 100 μL per well, and incubated at 37° C. for 2 hours; washing was performed once with 300 μL PBST, PBS (2% BSA) was then added, 100 μL per well, and incubation was performed at 37° C. for 2 hours; biotin-labeled Nectin-1-hFc was diluted with PBS (2% BSA) to 20 μg/mL; the antibody to be detected was diluted with PBS (2% BSA), wherein the dilution of 31HZ and 74HZ was started from 3.73 μg/mL, 3-fold dilution, and 9 concentration points, the dilution of 56HZ was started from 1.25 μg/mL, 2-fold dilution, and 10 concentration points; the above two diluted solutions were mixed well in equal volumes, and then added to the corresponding well at 100 μL/well, and incubation was performed at room temperature for 2 hours; washing was performed three times with 300 μL PBST; HRP-streptavidin was diluted with PBS (2% BSA) at a ratio of […], and added to the corresponding well at 100 μL/well, incubation was performed at room temperature for 1 hour; washing was performed five times with 300 μL of PBST; 100 μL of TMB was added to the corresponding well, color development was performed at room temperature for 10 minutes, and then terminated by adding 50 μL of 2N H₂SO₄, and a microplate reader was used for collecting readings at 450 nm.

human Nectin-4 protein [7] = molecular target: T1, human Nectin-4 protein; assay: ELISA, coated human Nectin-4, anti-human-HRP; remark: listed apart in the source
human Nectin-4 protein [8] = molecular target: T1, human Nectin-4 protein; assay: ELISA, coated human Nectin-4, anti-human-HRP; remark: listed apart in the source
[9] = molecular target: T2, cynomolgus monkey Nectin-4 protein; assay: ELISA, coated cynomolgus monkey Nectin-4, anti-human-HRP; remark: listed apart in the source
[10] = molecular target: T3, human Nectin-4 on cell membrane surface (human, UniProt Q96NY8 32-510); assay: flow cytometry on T47D cells
T3 construct: whole, on cells; also called A549-Nectin-4; T24-Nectin-4
T3 sequence (looked up): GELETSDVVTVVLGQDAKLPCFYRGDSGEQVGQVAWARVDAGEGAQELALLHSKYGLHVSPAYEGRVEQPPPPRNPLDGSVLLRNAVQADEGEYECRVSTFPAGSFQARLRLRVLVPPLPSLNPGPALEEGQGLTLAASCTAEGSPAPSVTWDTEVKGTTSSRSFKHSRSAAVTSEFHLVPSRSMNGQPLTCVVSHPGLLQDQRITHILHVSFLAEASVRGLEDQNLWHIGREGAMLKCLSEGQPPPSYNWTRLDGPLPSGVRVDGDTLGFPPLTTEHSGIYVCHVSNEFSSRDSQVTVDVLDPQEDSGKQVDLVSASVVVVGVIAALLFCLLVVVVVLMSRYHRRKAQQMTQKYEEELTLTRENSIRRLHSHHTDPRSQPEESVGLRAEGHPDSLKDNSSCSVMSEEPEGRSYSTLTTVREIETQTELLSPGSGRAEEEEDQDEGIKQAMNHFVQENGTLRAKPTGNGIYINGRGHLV
Protocol: The specific steps were as follows: T47D cells were digested, resuspended by centrifugation, and washed twice with PBS; the cells were resuspended in PBS (containing 1% BSA), and spread into a 96-well tip-bottom plate at 3×10⁵ cells/well, with a volume of 50 μl per well; 50 μL of the antibody to be tested was added to each well, starting at a final concentration of […], 4-fold gradient dilution, a total of 10 concentration points; Human IgG was used as a negative control; after being mixed well, the resulting mixture was reacted in the dark at 4° C. for 1 hour; washing was performed 3 times with PBS, FITC-labeled anti-human Fc secondary antibody (brand: BioLegend, product number: 409322) was added, incubated at 4° C. for 0.5 hours in the dark; washing was performed 3 times with PBS, and detection was carried out using a flow cytometer (flow cytometer brand: Beckman, model: Cytoflex).

[11] = molecular target: T3, human Nectin-4 on cell membrane surface; assay: flow cytometry on NCI-N87 cells
[12] = molecular target: T2, cynomolgus monkey Nectin-4 protein; assay: BLI (Octet Fortebio), antibody on ProA sensor, Nectin-4 as analyte, 1:1 global fit
Protocol: (§2) The dynamic affinity of anti-human Nectin-4 humanized monoclonal antibodies was detected using Octet Fortebio®. The main steps comprised: firstly, the anti-human Nectin-4 humanized monoclonal antibody (concentration of 5 μg/mL) was immobilized on ProA sensor, then subjected to binding reaction with human or cynomolgus monkey Nectin-4 (gradiently diluted to 400 nM, 200 nM, 100 nM, 50 nM, 25 nM, 12.5 nM, 6.25 nM, 0 nM), and the anchored product in the solid phase obtained through fully reaction was subjected to dissociation reaction in PBST buffer. After the completion of the experiment, the results were analyzed by using Data Analysis 11.0 software at 1:1 mode to perform global fitting, thereby obtaining the affinity constant of antibody to antigen.

human Nectin-4 protein [13] = molecular target: T1, human Nectin-4 protein; assay: as above
Protocol: as §2

B2: anti-human Nectin-4 murine monoclonal antibody 74# (antibody, V domains shown)
VH: EVQLQQPGAELVRPGASVKLSCKASGYTFINYWMNWVKQRPGQGLEWIGMIHPSDSATRLNQKFKDKATLTVDKSSSTAYMQLSSPTSEDSAVYYCARWGNFYTVNAWYYFDYWGHGTTLTVSS
VL: DIVITQSPSSLAMSVGQKVTMSCKSSQTLLNSNTQKNYLAWYQQKPGQSPKLLFYFASTRESGVPDRFIGSGSGTNFTLTISSVQAEDLADYFCQQHYSTPLTFGAGTKLEIK
notes: Murine antibody purified by Protein A from hybridoma supernatant
- EC50 (human Nectin-4 protein [1]): 0.0694 nM

B3: Enfortumab (antibody, V domains shown)
VH: EVQLVESGGGLVQPGGSLRLSCAASGFTFSSYNMNWVRQAPGKGLEWVSYISSSSSTIYYADSVKGRFTISRDNAKNSLSLQMNSLRDEDTAVYYCARAYYYGMDVWGQGTTVTVSS
VL: DIQMTQSPSSVSASVGDRVTITCRASQGISGWLAWYQQKPGKAPKFLIYAASTLQSGVPSRFSGSGSGTDFTLTISSLQPEDFATYYCQQANSFPPTFGGGTKVEIKR
- EC50 [2]: 6 ng/mL
- EC50 (human Nectin-4 protein [3]): 7.1 ng/mL
- EC50 (read off the curve) [4]: ~6 ng/mL
- EC50 (read off the curve) (human Nectin-4 protein [5]): ~7 ng/mL
- IC50 (human Nectin-4 protein [6]): 27.1 ng/mL
- EC50 (read off the curve) (human Nectin-4 protein [7]): ~9 ng/mL
- EC50 (read off the curve) (human Nectin-4 protein [8]): ~5 ng/mL
- EC50 (read off the curve) [9]: ~7 ng/mL
- EC50 [10]: 10.1 ng/mL
- EC50 [11]: 22.1 ng/mL
- Kd [12]: 33.6 nM
- Kd (human Nectin-4 protein [13]): 28.3 nM

Results, then the binder that gave them:

- EC50 (human Nectin-4 protein [1]): 0.0549 nM
B1: anti-human Nectin-4 murine monoclonal antibody 31# (antibody, V domains shown)
VH: EVQLQQPGADLVRPGASVKLSCKASGYTFTDYWMNWVKLRPGQGLEWIGMIHPSDSETRLNQKFKDKATLTVDKSSSTAYMQLSSPTSEDSAVYYCARWDFRIYYAMDYWGQGTSVTVSS
VL: DVVITQSPSSLAMSVGQKVTMSCKSSQSLLNTNSQKNYLAWYQQKPGQSPKLLVYFASTRESGVPDRFIGSGSGTDFTLTITSVQAEDLADYFCQQHYSTPLTFGAGTKLEIK
notes: as for B2

- EC50 (human Nectin-4 protein [1]): 0.0363 nM
B4: anti-human Nectin-4 murine monoclonal antibody 56# (antibody, V domains shown)
VH: QVQLKESGPGLVKPSQSLSLTCTVTGYSITSDYDWHWIRHFPGNMLEWMGYISFSGRTYYNPSLKSRISITHDTSKNHFFLRLNSVTTEDTATYYCARGNYDGFDYWGQGTTLTVSS
VL: DIQLTQSPAILSVSPGERVSFSCRASQNIGTSIHWYQHRTNGSPRLLIKFASESISGIPSRFSGSGSGTDFTLSINSVESEDIADYYCQQSKSWPTYTFGGGTKLEIK
notes: as for B2
